Values quoted from earlier work in patent US20230250195A1, “Methods for Reducing Infusion-Related Reactions in Patients Treated with EGFR/Met Bispecific Antibodies” (Janssen Biotech, Inc., priority 2022, published 2023).

Conditions: 302 patients with locally advanced or metastatic NSCLC; IV amivantamab at recommended Phase 2 dose (RP2D) as a single agent

Substance: amivantamab: IgG1 anti-EGFR/c-Met bispecific antibody described in U.S. Pat. No. 9,593,164
- incidence of infusion-related reactions (IRRs): 66%
